Reference: patent US20110287948A1, “MEASUREMENT OF MATERIAL PROPERTIES AND RELATED METHODS AND COMPOSITIONS BASED ON CYTOADHERENCE” (Massachusetts Institute of Technology, priority 2010, published 2011)

B1: CCL19: chemokine CCL19 (R&D Systems) used as chemoattractant for T cells (protein, UniProt Q99731 22-98, looked up)
C-C motif chemokine 19: GTNDAEDCCLSVTQKPIPGYIVRNFHYLLIKDGCRVPAVVFTTLRGRQLCAPPDQPWVERIIQRLQRTSAKMKRRSS

What was measured:
[1] = system: Acute promyelocytic leukemia cells; settings: cells induced to differentiate down the neutrophil lineage for three days; cited from earlier work
WAS−/− T cells [2] = experiment: Micropipette aspiration of CCL19-stimulated migratory WAS-/- T cells; type: cell-based, mouse (WAS−/− on Balb/c background); settings: naïve WAS−/− T cells that migrated in response to CCL19
Description: (§1) Micropipettes made using a micropipette puller were trimmed to 2.5-3 or 4.5-5 μm inner diameter for testing naïve and activated T cells. MPA glass chambers consisted of a 24 mm×60 mm microscope coverslip bottom, a U-shaped parafilm spacer, and a 22 mm×22 mm microscope coverslip top. The assembly was baked for two hours at 80° C. to ensure good adhesion between the components.
(§2) Enriched WT and WAS−/− T cells in DMEM with 1% BSA and 0.1% Pen/Strep were induced to migrate through polycarbonate Transwell inserts (Costar, Cambridge, Mass.) with 5-μm pores in a 24-well plate toward a CCL19 chemokine source (R&D Systems, Minneapolis, Minn.). Inserts contained 5×10^5 cells in 100 μL of medium, and wells contained 1 mL of medium with either no CCL19 or 100 ng/mL of CCL19. Cells were allowed to migrate for ˜7 hours at 37° C., and those that crossed the membrane were collected and used for MPA studies.
3×10^5 cells in 100 μL RPMI with 10% FBS and 1% HEPES was stained with 10 μL trypan blue. The mixture was added to 600 μL of either the RPMI medium or the T cell activation medium with IL-2 for naïve and activated T cell testing. Migratory T cells were tested in the medium used for migration. The MPA device was based on the design of Hochmuth et al (18). […] The cell movement in the micropipette was recorded with a CCD camera. […]

WT T cells [3] = experiment: FACS analysis of phenotype (CD62L/CD44) of WT T cells induced to migrate by CCL19; type: cell-based, mouse (Balb/c); settings: WT cells that migrated after CCL19 exposure
Description: FIG. 68 depicts results of a FACS analysis of phenotype of naïve WT T cells induced to migrate by the chemokine CCL19. T cells were first gated on PI to exclude dead cells. The cell samples tested were naïve T cells not exposed to CCL 19 (A, D), cells that remained in the insert after CCL19 exposure (100 ng/mL) for seven hours (B, E), and cells that migrated across the insert membrane after the same chemokine treatment (C, F).
Cells from the peripheral lymph nodes and the spleen of Balb/c mice and WAS−/− mice on Balb/c background were pooled and enriched using the EasySep Mouse CD8+ T Cell Enrichment Kit from STEMCELL Technologies (British Columbia, Canada). Enrichment was confirmed using fluorescence-activated cell sorting (FACS) by staining the cells with FITC/anti-Thy1.2 and PE/anti-CD8a antibodies (Abs). The memory T cell population was assessed by evaluating the expression of CD44 and CD62L via FACS. T cells in an activation medium with 100 units/mL IL-2 and 1% anti-CD28 Ab were activated by plate-bound anti-CD3 Abs for 4 day at 37° C. The activation medium included RPMI with 10% FBS, 10 mM HEPES (1M), 1% NEAA, 1% sodium pyruvate (100 mM), […] (3-mercaptoethanol, 4 mM L-glutamine, and 100 μg/mL Pen/Strep. Cell activation was verified via FACS measurement of CD25. […]

WT T cells [4] = experiment: Micropipette aspiration of CCL19-stimulated migratory WT T cells; type: cell-based, mouse (Balb/c)
Description: as §1, §2
3×10^5 cells in 100 μL RPMI with 10% FBS and 1% HEPES was stained with 10 μL trypan blue. The mixture was added to 600 μL of either the RPMI medium or the T cell activation medium with IL-2 for naïve and activated T cell testing. Migratory T cells were tested in the medium used for migration. The MPA device was based on the design of Hochmuth et al (18). The aspiration rate and volume were 36 mL/hr and 2 mL, corresponding to a total pressure of ˜400 Pa. The cell movement in the micropipette was recorded with a CCD camera. Aspirations were performed at approximately room temperature.
MPA data were fitting using the half-space model (77) described by the expressions:
where E is the cell modulus, L is the length from the micropipette opening to the cell leading edge, Δp is the pressure differential at a particular L, ri and ro are the inner and outer […] of the micropipette, and φ is the wall function that is approximately […]. The ImageJ software was used to manually track the change in L. By plotting Δp against ri/L and finding the best linear fit (minimal total error) a modulus could be derived from the slope of the line. […]

WAS−/− T cells [5] = experiment: In vitro Transwell cell migration toward CCL19, WAS-/- T cells; type: cell-based, mouse (WAS−/− on Balb/c background); settings: seven hours of exposure to CCL19 (100 ng/mL), 5-μm pore inserts
Description: Cells from the peripheral lymph nodes and the spleen of Balb/c mice and WAS−/− mice on Balb/c background were pooled and enriched using the EasySep Mouse CD8+ T Cell Enrichment Kit from STEMCELL Technologies (British Columbia, Canada). Enrichment was confirmed using fluorescence-activated cell sorting (FACS) by staining the cells with FITC/anti-Thy1.2 and PE/anti-CD8a antibodies (Abs). The memory T cell population was assessed by evaluating the expression of CD44 and CD62L via FACS. T cells in an activation medium with 100 units/mL IL-2 and 1% anti-CD28 Ab were activated by plate-bound anti-CD3 Abs for 4 day at 37° C. The activation medium included RPMI with 10% FBS, 10 mM HEPES (1M), 1% NEAA, 1% sodium pyruvate (100 mM), […] (3-mercaptoethanol, 4 mM L-glutamine, and 100 μg/mL Pen/Strep. Cell activation was verified via FACS measurement of CD25. Enriched WT and WAS−/− T cells in DMEM with 1% BSA and 0.1% Pen/Strep were induced to migrate through polycarbonate Transwell inserts (Costar, Cambridge, Mass.) with 5-μm pores in a 24-well plate toward a CCL19 chemokine source (R&D Systems, Minneapolis, Minn.). Inserts contained 5×10^5 cells in 100 μL of medium, and wells contained 1 mL of medium with either no CCL19 or 100 ng/mL of CCL19. Cells were allowed to migrate for ˜7 hours at 37° C., and those that crossed the membrane were collected and used for MPA studies.

Molecule | more compliant than the control (creep compliance) [1] [%] | apparent Young's modulus (mean+/−SD) (WAS−/− T cells [2]) | migrating cells stained CD62L high and CD44 low (naïve phenotype) (WT T cells [3]) [%] | stiffness compared to activated cells (WT T cells [4]; migratory WT cells vs activated WT T cells) | modulus reduction from the value measured in the absence of CCL19 (WT T cells [4]; migratory WT cells vs untreated naïve WT cells) | apparent Young's modulus (mean+/−SD) (WT T cells [4]; naïve WT T cells that migrated in response to CCL19) | cells migrated (WAS−/− T cells [5]) [%]
CC1=C(/C=C/C(C)=C/C=C/C(C)=C/C(=O)O)C(C)(C)CCC1 [all-trans retinoic acid] | 45 | – | – | – | – | – | –
B1 | – | 152+/−102 Pa | ~90 | about 1.4 times | more than 2 times | 128+/−33 Pa | ~6.4
